B1: FBXO3 (parent)
chain: AGGFQQRQGLKYCLPLTFCIHTGL
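Further: lentivirally expressed fusions sorted by FACS into six bins by GFP to DsRed ratio, PSI derived from sequencing read proportions per bin multiplied by bin number.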

Variants of: B1
Test: protein stability index of a GFP-peptide fusion (GPS, HEK-293T) (PSI 1-6); higher = more stable
Settings: c terminus: a fixed tail appended
AGGFQQRQGPKYCLPLTFCIHTGL showed a protein stability index of 2.2. In the case of AGGFQQRQGNKYCLPLTFCIHTGL, the protein stability index is reported as 2.56. AGGFQQRQGKKYCLPLTFCIHTGL showed a protein stability index of 3.64. In the case of AGGFQQRQGVKYCLPLTFCIHTGL, the protein stability index is reported as 2.85. Work on AGGFQQRQGAKYCLPLTFCIHTGL yielded a protein stability index of 2.95. With AGGFQQRQGEKYCLPLTFCIHTGL the protein stability index was 2.19. In the case of AGGFQQRQGCKYCLPLTFCIHTGL, the protein stability index is reported as 2.26. Variant AGGFQQRQGTKYCLPLTFCIHTGL has a protein stability index of 2.53. With AGGFQQRQGQKYCLPLTFCIHTGL the protein stability index was 3.23. Work on AGGFQQRQGSKYCLPLTFCIHTGL yielded a protein stability index of 3.66. In the case of AGGFQQRQGMKYCLPLTFCIHTGL, the protein stability index is reported as 2.56. For AGGFQQRQGYKYCLPLTFCIHTGL, the protein stability index was 3.49. AGGFQQRQGDKYCLPLTFCIHTGL showed a protein stability index of 2.84. Variant AGGFQQRQGFKYCLPLTFCIHTGL has a protein stability index of 2.03. AGGFQQRQGHKYCLPLTFCIHTGL showed a protein stability index of 1.64. For AGGFQQRQGWKYCLPLTFCIHTGL, the protein stability index was 3.49. With AGGFQQRQGLKYCLSLTFCIHTGL the protein stability index was 2.81. AGGFQQRQGLKYCLALTFCIHTGL gave a protein stability index of 2.77. With AGGFQQRQGLKYCLWLTFCIHTGL the protein stability index was 1.61. AGGFQQRQGLKYCLGLTFCIHTGL showed a protein stability index of 2.33. AGGFQQRQGLKYCLLLTFCIHTGL showed a protein stability index of 2.01. With AGGFQQRQGLKYCLRLTFCIHTGL the protein stability index was 2.51. Variant AGGFQQRQGLKYCLKLTFCIHTGL has a protein stability index of 1.13. AGGFQQRQGLKYCLQLTFCIHTGL gave a protein stability index of 2.27. Work on AGGFQQRQGLKYCLMLTFCIHTGL yielded a protein stability index of 2.93. Work on AGGFQQRQGLKYCLFLTFCIHTGL yielded a protein stability index of 2.95. AGGFQQRQGLKYCLILTFCIHTGL showed a protein stability index of 3.05. With AGGFQQRQGLKYCLCLTFCIHTGL the protein stability index was 2.57. In the case of AGGFQQRQGLKYCLPLTGCIHTGL, the protein stability index is reported as 1.1. In the case of AGGFQQRQGLKYCLPLTMCIHTGL, the protein stability index is reported as 2.41. Work on AGGFQQRQGLKYCLPLTSCIHTGL yielded a protein stability index of 1.4. AGGFQQRQGLKYCLPLTLCIHTGL gave a protein stability index of 3.1. AGGFQQRQGLKYCLPLTDCIHTGL gave a protein stability index of 1.67. AGGFQQRQGLKYCLPLTICIHTGL gave a protein stability index of 2.93. With AGGFQQRQGLKYCLPLTACIHTGL the protein stability index was 2.38. For AGGFQQRQGLKYCLPLTHCIHTGL, the protein stability index was 1.77. In the case of AGGFQQRQGLKYCLPLTQCIHTGL, the protein stability index is reported as 2.47. AGGFQQRQGLKYCLPLTRCIHTGL gave a protein stability index of 1.05. Work on AGGFQQRQGLKYCLPLTTCIHTGL yielded a protein stability index of 1.19. Variant AGGFQQRQGLKYCLPLTYCIHTGL has a protein stability index of 2.71. With AGGFQQRQGLKYCLPLTPCIHTGL the protein stability index was 1.68. AGGFQQRQGLKYCLPLTNCIHTGL showed a protein stability index of 1.95. In the case of AGGFQQRQGLKYCLPLTVCIHTGL, the protein stability index is reported as 4.06. In the case of AGGFQQRQGLKYCLPLTECIHTGL, the protein stability index is reported as 2.36. AGGFQQRQGLKYCLPLTKCIHTGL gave a protein stability index of 1.89. For AGGFQQRQGLKYGLPLTFCIHTGL, the protein stability index was 2.48. In the case of AGGFQQRQGLKYILPLTFCIHTGL, the protein stability index is reported as 2.94. AGGFQQRQGLKYMLPLTFCIHTGL showed a protein stability index of 2.51. With AGGFQQRQGLKYALPLTFCIHTGL the protein stability index was 2.85. For AGGFQQRQGLKYYLPLTFCIHTGL, the protein stability index was 2.22. Work on AGGFQQRQGLKYHLPLTFCIHTGL yielded a protein stability index of 2.57. AGGFQQRQGLKYTLPLTFCIHTGL showed a protein stability index of 3.22. AGGFQQRQGLKYVLPLTFCIHTGL showed a protein stability index of 3.35. AGGFQQRQGLKYWLPLTFCIHTGL showed a protein stability index of 3.43. AGGFQQRQGLKYDLPLTFCIHTGL showed a protein stability index of 2.67. AGGFQQRQGLKYNLPLTFCIHTGL gave a protein stability index of 2.93. Work on AGGFQQRQGLKYPLPLTFCIHTGL yielded a protein stability index of 3.01. In the case of AGGFQQRQGLKYLLPLTFCIHTGL, the protein stability index is reported as 1.69. AGGFQQRQGLKYQLPLTFCIHTGL gave a protein stability index of 3. Variant AGGFQQRQGLKYFLPLTFCIHTGL has a protein stability index of 2.94. AGGFQQRQGLKYELPLTFCIHTGL gave a protein stability index of 3.1. In the case of AGGFQQRQGLKYCLPSTFCIHTGL, the protein stability index is reported as 2.17. AGGFQQRQGLKYCLPRTFCIHTGL showed a protein stability index of 2.91. For AGGFQQRQGLKYCLPYTFCIHTGL, the protein stability index was 2.33. With AGGFQQRQGLKYCLPNTFCIHTGL the protein stability index was 1.51. AGGFQQRQGLKYCLPPTFCIHTGL gave a protein stability index of 2.75. With AGGFQQRQGLKYCLPQTFCIHTGL the protein stability index was 1.52. With AGGFQQRQGLKYCLPFTFCIHTGL the protein stability index was 3.56. AGGFQQRQGLKYCLPATFCIHTGL showed a protein stability index of 2.44. In the case of AGGFQQRQGLKYCLPWTFCIHTGL, the protein stability index is reported as 2.89. Work on AGGFQQRQGLKYCLPHTFCIHTGL yielded a protein stability index of 2.58. Work on AGGFQQRQGLKYCLPMTFCIHTGL yielded a protein stability index of 4.03. In the case of AGGFQQRQGLKYCLPETFCIHTGL, the protein stability index is reported as 2.03. AGGFQQRQGLKYCLPTTFCIHTGL showed a protein stability index of 2.53. AGGFQQRQGLKYCLPITFCIHTGL showed a protein stability index of 3.02. AGGFQQRQGLKYCLPDTFCIHTGL gave a protein stability index of 1.68. AGGFQQRQGLKYCLPCTFCIHTGL showed a protein stability index of 1.66. Work on AGGFQQRQGLKYCLPKTFCIHTGL yielded a protein stability index of 2.95. For AGGFQQRQGLKSCLPLTFCIHTGL, the protein stability index was 3.56. AGGFQQRQGLKRCLPLTFCIHTGL gave a protein stability index of 3.39. With AGGFQQRQGLKDCLPLTFCIHTGL the protein stability index was 2.21. AGGFQQRQGLKWCLPLTFCIHTGL gave a protein stability index of 2.43. For AGGFQQRQGLKVCLPLTFCIHTGL, the protein stability index was 2.36. For AGGFQQRQGLKCCLPLTFCIHTGL, the protein stability index was 2.32. With AGGFQQRQGLKECLPLTFCIHTGL the protein stability index was 2.29. In the case of AGGFQQRQGLKLCLPLTFCIHTGL, the protein stability index is reported as 3.06. AGGFQQRQGLKICLPLTFCIHTGL showed a protein stability index of 2.84. For AGGFQQRQGLKACLPLTFCIHTGL, the protein stability index was 3.25. Work on AGGFQQRQGLKGCLPLTFCIHTGL yielded a protein stability index of 3.3. Work on AGGFQQRQGLKQCLPLTFCIHTGL yielded a protein stability index of 3.79. Work on AGGFQQRQGLKMCLPLTFCIHTGL yielded a protein stability index of 2.59. In the case of AGGFQQRQGLKPCLPLTFCIHTGL, the protein stability index is reported as 1.68. With AGGFQQRQGLKNCLPLTFCIHTGL the protein stability index was 1.86. Variant AGGFQQRQGLKKCLPLTFCIHTGL has a protein stability index of 2.49.

Reference: the supplement of paper PMC10567573
